Test results taken from PMC9080080 (Cell Reports, 2022).

Target: SARS-CoV S2P protein (SARS-CoV, strain  (reference …, UniProt P59594, stabilised))
Test: SPR

B1: XMA09 (antibody, V domains shown)
VH: QVQLVQSGAEVKKPGSSVKVSCKASGGTFSSFAISWVRQAPGQGLEWMGGIIPIYGTANYAQKFQGRVTITADESTSTAYMDLSSLRSEDTAVYYCARDGSSTYYPHNWFDPWGQGTLVTVSS
VL: QSVLTQPPSVSGAPGQRVTISCTGSSSNIGSGYDVHWYQQLPGTAPKLLIYGNSNRPSGVPDRFSGSKSGTSASLAITGLQAEDEADYYCQSYDSSLSGVFGTGTKVTVL
Question: Does B1 bind?
Answer: binds
